According to paper PMC11096372:

Biological target: Cas8b;Cas7b;Cas5b;Cas6b;Cas11b (Synechocystis sp. PCC 6714;Synechocystis sp. PCC 6714;Synechocystis sp. PCC 6714;Synechocystis sp. PCC 6714;Synechocystis sp. PCC 6714) (UniProt A0A068N831+A0A068N458+A0A068N1Y0+A0A068N831)
Test: EMSA
Conditions: crRNA-loaded Cascade; EMSA: 10 nM labeled DNA, Cascade 0-200 nM, 20 mM HEPES pH 7.5, 100 mM NaCl, 25 C, 1 h; 6% acrylamide gel, 0.5x TBE, cold room; Hill fit

Row | Sequence | Kd
1 | TAATACGACTCACTATAGGTCGCGGATCCACATTTATCACCGTGTCCCCAATCTGGATATTTTGTGTCTCGAGCACCACCGCTGAGCAATAACTAGC (double strand) [ACA-PAM 97 bp (synPAM-9)] | 56.2 nM
2 | TAATACGACTCACTATAGGTCGCGGATCCACCTTTATCACCGTGTCCCCAATCTGGATATTTTGTGTCTCGAGCACCACCGCTGAGCAATAACTAGC (double strand) [ACC-PAM 97 bp (synPAM-11)] | 58.2 nM
3 | TAATACGACTCACTATAGGTCGCGGATCCACGTTTATCACCGTGTCCCCAATCTGGATATTTTGTGTCTCGAGCACCACCGCTGAGCAATAACTAGC (double strand) [ACG-PAM 97 bp (synPAM-10)] | 20.6 nM
4 | TAATACGACTCACTATAGGTCGCGGATCCACTTTTATCACCGTGTCCCCAATCTGGATATTTTGTGTCTCGAGCACCACCGCTGAGCAATAACTAGC (double strand) [ACT-PAM 97 bp (synPAM-12)] | 140 nM
5 | TAATACGACTCACTATAGGTCGCGGATCCATATTTATCACCGTGTCCCCAATCTGGATATTTTGTGTCTCGAGCACCACCGCTGAGCAATAACTAGC (double strand) [ATA-PAM 97 bp (synPAM-13)] | 24 nM
6 | TAATACGACTCACTATAGGTCGCGGATCCATCTTTATCACCGTGTCCCCAATCTGGATATTTTGTGTCTCGAGCACCACCGCTGAGCAATAACTAGC (double strand) [ATC-PAM 97 bp (synPAM-15)] | 47.7 nM
7 | TAATACGACTCACTATAGGTCGCGGATCCATGTTTATCACCGTGTCCCCAATCTGGATATTTTGTGTCTCGAGCACCACCGCTGAGCAATAACTAGC (double strand) [ATG-PAM 97 bp (synPAM-14)] | 18 nM
8 | TAATACGACTCACTATAGGTCGCGGATCCATTTTTATCACCGTGTCCCCAATCTGGATATTTTGTGTCTCGAGCACCACCGCTGAGCAATAACTAGC (double strand) [ATT-PAM 97 bp (synPAM-16)] | 59.7 nM
